B1: RIPK4 (parent)
chain: RERMELLEEAKKMEMAKFRYILPV
B2: HDAC6 (parent)
chain: QEGLLDRCVSFQARFAEKEELMLV

Variants of: B1
Assay: protein stability index of a GFP-peptide fusion (GPS, HEK-293T) (PSI 1-6); higher = more stable
Details: c terminus: a fixed tail appended
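Note: lentivirally expressed fusions sorted by FACS into six bins by GFP to DsRed ratio, PSI derived from sequencing read proportions per bin multiplied by bin number.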

Protein stability index, by site and new letter:
R1: D 4.22, A 3.83, H 4.5, M 3.98, C 2.88, F 3.47, E 3.99, G 3.79, P 3.85, I 3.29, L 4.16, K 4.16, N 4.13

Variants of: B2
Assay: as above
Details: c terminus: a fixed tail appended

Protein stability index of substitutions, site by site:
V24: W 2.21, D 4.32, M 2.05, R 3.31, E 4.18, G 3.62, K 3.74, H 2.82, L 2.21, Y 2.27, T 3.82, A 3.83, C 2.63, F 1.85, Q 3.76, P 4.13, S 3.59, N 3.42, I 2.17
K18: V 1.96, C 2.17, E 2.38, F 2.51, I 2.6, Y 1.78, W 2.1, G 1.63, S 1.75, P 2.07, T 2.66, D 1.79, N 1.77, H 1.44, Q 2.17, R 1.45, A 1.98, M 2.04, L 1.49
E19: W 2.08, F 1.98, Q 1.67, I 2, H 2.14, D 1.76, P 2.18, C 1.63, V 1.49, L 1.49, T 2.87, R 1.84, N 1.6, S 2.14, M 1.58, G 2.6, K 1.9, A 1.76, Y 1.53
L23: V 1.93, W 1.89, M 1.83, A 3.4, Y 2.14, C 2.59, D 4.37, H 2.57, T 2.98, R 3.35, I 1.85, K 3.55, F 1.96, P 3.45, G 3.93, S 3.25, Q 2.32, E 3.49, N 3.82
M22: I 1.92, Y 2.03, Q 2.81, K 3.31, D 4.03, T 3.2, S 3.43, R 3.14, F 1.88, N 3.84, G 3.27, H 2.59, A 2.93, E 4.27, W 1.95, P 3.99, C 3.01, V 1.92, L 2.03
E17: G 1.95, M 1.4, L 1.85, R 2.03, Q 2.05, S 1.7, V 1.21, P 1.73, N 1.68, Y 1.67, F 1.53, D 2.14, A 2.05, K 1.72, H 1.49, W 1.02, I 1.58, C 1.73, T 1.46
E20: S 2.24, F 2.98, V 1.72, Q 1.86, I 1.18, W 2.02, P 2.01, Y 1.67, D 2.32, M 1.37, G 1.74, K 1.96, H 2.52, T 2.14, R 1.69, A 2.37, N 1.84, L 1.62
L21: M 2.14, N 3.78, Q 2.88, Y 2.17, V 2.14, F 1.98, T 2.73, E 3.16, C 2.18, I 1.59, R 3.06, A 4.12, G 3.76, S 4.16, H 2.45, D 4.3, P 3.29, W 2.03, K 3.17
A16: Y 1.65, W 1.03, V 1.5

— the supplement of paper PMC10567573
